# According to US20220089765A1, “CD31 COMPETITORS AND USES THEREOF” (ENCEFA, priority 2019, published 2022):
# Positions count from the first letter of the chain named.
# B1: ABBV-8E12: monoclonal antibody whose brain/plasma ratio in humans is cited (antibody, chains of the INN, looked up, V domains shown)
# VH: EVKVVESGGGLVQPGGSMKLSCVVSGFTFSNYWVNWVRQAPGKGLEWVAQIRLKSDNYATHYEESVKGRFTISRDDSKSSVYLQMNNLRAEDSGIYYCTNWEDYWGQGTTVTVSS
# VL: DIVLTQSPDSLAVSLGERATISCRASQSVSTSRYSYIHWYQQKPGQPPKLLIKYASNLESGVPSRFSGSGSGTDFTLNIHPLEPEDFATYYCHHSWEIPLTFGQGTKLEIK
# B2: Clone C05: anti-human CD38 antibody, HCVR SEQ ID NO: 34 and LCVR SEQ ID NO: 40 (antibody, V domains shown)
# VH: EVQLVESGGSLVKPGGSLRLSCAASGFTFSNNYMNWVRQAPGKGLEWISSISGSSRYISYADFVKGRFTISRDNAKNSLYLQMNSLRAEDTAVYYCVRSSSSYYYSGNGMDVWGRGTLVTVSS
# VL: QSVLTQPASVSGSPGQSITISCAGTSSDVGGSSYVSWYQQHPGKAPKLMIYYDSYRPSGVSNRFSGSKSGNTASLTISGLQAEDEADYYCSSNTYYSTRVFGGGTKL
# modifications: HCVR C05; LCVR C05/C06
# B3: Clone D06: anti-human CD38 antibody, HCVR SEQ ID NO: 36 and LCVR SEQ ID NO: 41 (antibody, V domains shown)
# VH: EVQLVESGGSLVKPGGSLRLSCAASGFTFSNYDMNWVRQAPGKGLEWISYIYGSSRDISYADFVKGRFTISRDNAKNSLYLQMNSLRAEDTAVYYCVRSSGYYFGYGMDVWGRGTLVTVSS
# VL: B2 VL with S33Y, Y52S, Y95A
# modifications: HCVR D06; LCVR D06
# B4: Clone D10: anti-human CD38 antibody, HCVR SEQ ID NO: 38 and LCVR SEQ ID NO: 42 (antibody, V domains shown)
# VH: B2 VH with N32S, Y33A, Y57D, S59Y
# VL: B2 VL with S32N
# modifications: HCVR D10; LCVR D07/D10
# B5: Clone C06: anti-human CD38 antibody, HCVR SEQ ID NO: 35 and LCVR SEQ ID NO: 40 (antibody, V domains shown)
# VH: B2 VH with N32S, Y33A, Y57N, S59Y, S101Y, Y103S, Y105G
# VL: B2 VL
# modifications: HCVR C06; LCVR C05/C06
# B6: Clone D07: anti-human CD38 antibody, HCVR SEQ ID NO: 37 and LCVR SEQ ID NO: 42 (antibody, V domains shown)
# VH: B2 VH with N32S, Y33A, S50Y, Y57D, N108S
# VL: B2 VL with S32N
# modifications: HCVR D07; LCVR D07/D10
# Experiments:
# [1] = molecular target: CD38 (on cells of midbrain cultures from Wistar rat embryos) (UniProt Q64244); experiment: cell-based or functional assay
# Chain of UniProt Q64244 (Q64244 whole entry): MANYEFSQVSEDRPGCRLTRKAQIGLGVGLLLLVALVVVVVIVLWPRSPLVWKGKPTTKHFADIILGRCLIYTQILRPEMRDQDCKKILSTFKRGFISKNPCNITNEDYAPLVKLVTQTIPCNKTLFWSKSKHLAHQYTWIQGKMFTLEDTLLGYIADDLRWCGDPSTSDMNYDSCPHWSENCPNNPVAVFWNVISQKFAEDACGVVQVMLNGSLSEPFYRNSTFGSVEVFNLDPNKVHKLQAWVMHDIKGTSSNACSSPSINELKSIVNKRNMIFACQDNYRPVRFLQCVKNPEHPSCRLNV
# [2] = tested on: dopaminergic neurons of the right substantia nigra pars compacta; experiment: 6-OHDA mouse model, number of DA (TH+) neurons; format: in vivo, mice
# Method: We aimed at determining whether B08 or D06 anti-CD38 antibodies were neuroprotective in vivo against neurodegeneration induced by oxidative stress. Mouse were administered with 6-hydroxydopamine (6-OHDA) in the right striatum. Since 6-OHDA is an analogue of dopamine, it is transported in dopaminergic neurons through the dopamine transporter, resulting in a specific degeneration and loss of dopaminergic neurons of the right substantia nigra pars compacta. It has been extensively used as a test system for novel symptomatic agents and for assessment of neuroprotective and neurorepair strategies (Galindo et al., 2014. In Kostrzewa (Ed.), Handbook of neurotoxicity (1st Ed., pp. 639-651). New York: Springer-Verlag). Since 6-OHDA is injected unilaterally in the right striatum, left striatum remains unaffected and each mouse is its own control.
# Two in vivo mouse models were used: the 6-OHDA mouse model and the MPTP mouse model. For the 6-OHDA mouse model, the intoxication protocol was based on the unilateral stereotaxic intrastriatal injection of 6-OHDA in the right striatum. Intracerebral or intravenous injections of treatments were made either the day before the surgical stereotaxic procedure, concomitantly with 6-OHDA during the surgical stereotaxic procedure, or two days after 6-OHDA injection. Animals were sacrificed 8 days after the surgical stereotaxic procedure.
# For unilateral 6-OHDA mouse model, animals were anesthetized using Chloral hydrate (400 mg/kg, i.p.) and placed into a stereotactic frame adapted to mice. The injection was performed using a Hamilton syringe at the following coordinates: AP: […], ML: […], DV: […] (corresponding to the atlas of Franklin and Paxinos, 1997). A total volume of 2.5 μL containing or not 5 μg of 6-OHDA diluted in PBS in the presence or the absence of test treatments was injected. The needle was left in place for 10 min after the injection before retraction.
# Mice were sacrificed by cervical dislocation, and beheaded to collect brain and blood samples. The brain was fixed in a paraformaldehyde solution (4%) during 1 day before being soaked in sucrose (30%) during 2 days and then froze at −80° C. for further analysis.
# Each brain was sliced using a freezing microtome at −30° C. The thickness of each slice was 20 μm. The slicing was done around the substantia nigra (80 slices from slice 51 to 63 according to Allen Mouse Brain).
# Slices were then washed out in PBS and incubated with anti-Tyrosine Hydroxylase to stain dopaminergic neurons (Abcam®) during 2 days, at 4° C., with agitation. Slices were incubated with corresponding secondary antibody in the presence of DAPI (Sigma Aldrich®) to stain cell's nuclei during 2 hours at room temperature, and mounted on gelatin-coated slides.
# The slices were imaged using a Nikon TE2000 U equipped with a Hamamatsu ORCE-ER camera or with a Zeiss Axio Vert.A1 equipped with an axiocam 503 mono camera. Image analysis was done using Image J software or Zen (Zeiss®).
# [3] = in humans; cited from earlier work
# [4] = tested on: midbrain dopaminergic (TH+) neurons; experiment: MPP+ intoxication model in midbrain cell cultures, survival of DA (TH+) neurons; format: cell-based, Wistar rat; details: for neuroprotective effect against MPP+-induced DA cell death, compared with reference clone HB7: 3 μM MPP+ between 5 and 7 DIV, each clone and HB7 0.5 μg/mL; for neuroprotective effect in the presence of the lysosomal exocytosis inhibitor vacuolin-1: 3 μM MPP+, test substance 1 μg/mL, vacuolin-1 10 μM
# Method: For this purpose, spontaneously occurring DA cell death was prevented by a treatment combining depolarizing concentrations of K^+ (30 mM) and MK801 (5 μM), a glutamate receptor antagonist used to prevent unwanted excitotoxic insult. The cultures were then exposed to 3 μM MPP between 5 and 7 days in vitro (DIV) to achieve a loss of approximately 50% of DA neurons.
# Animals were treated in accordance with the Guide for the Care and Use of Laboratory Animals (National Research Council, 1996), European Directive 86/609, and the guidelines of the local institutional animal care and use committee. Cultures were prepared from the ventral mesencephalon of gestational age 15.5 Wistar rat embryos (Janvier Breeding Center, Le Genest St Isle, France). Dissociated cells in suspension obtained by mechanical trituration of midbrain tissue pieces were seeded at a density of 1.2-1.5×10^5 cells/cm^2 onto tissue culture supports precoated with 1 mg/mL polyethylenimine diluted in borate buffer pH 8.3 as described (Michel et al., 1997. J Neurochem. 69(4):1499-507). The cultures were then maintained in N5 medium supplemented with 5 mM glucose, 5% horse serum, and 0.5% fetal calf serum, except for the first 3 DIV, when the concentration of fetal calf serum was 2.5% to favor initial maturation of the cultures (Guerreiro et al., 2008. Mol Pharmacol. 74(4):980-9). They were fed daily by replacing 70% of the medium. Routinely, mesencephalic cultures were established on Nunc 24-well culture plates (Thermofischer Scientific, Rochester, N.Y.). Note that these cultures contain tyrosine hydroxylase (TH)^+ neurons that were exclusively dopaminergic (Traver et al., 2006. Mol Pharmacol. 70(1):30-40). TH^+ neurons represented approximately 1-2% of the total number of neuronal cells present in these cultures. The evaluation of the survival of DA neurons was performed by counting cells immunopositive for TH as described (Toulorge et al., 2011. Faseb J. 25(8):2563-73).
# Treatments with MPP were performed in cultures where the spontaneous death process was prevented by long-term exposure to depolarizing concentrations of K^+ (30 mM), in the presence of the glutamate receptor antagonist MK801 (5 μM) to prevent unwanted excitotoxic insults as described previously (Douhou et al., 2001. J Neurochem. 78(1): 163-74). Treatments with MPP and potential neuroprotective molecules were carried out between 5 and 7 DIV.
# The cultures were fixed for 12 min using 4% formaldehyde in Dulbecco's phosphate-buffered saline (PBS), then washed twice with PBS before an incubation step at 4° C. for 24 h with the following antibodies. A monoclonal anti-TH antibody diluted 1/5000 (ImmunoStar, Inc., Hudson, Wis.) was used to assess the survival of DA neurons. Antibody was diluted in PBS containing 0.2% Triton X-100. Detection of the primary antibodies was performed with an Alexa Fluor-488 conjugate of an anti-mouse IgG antibody.
# [5] = tested on: human peripheral blood mononuclear cells (PBMCs); experiment: IL-10 release from human PBMCs in vitro (ELISA); format: cell-based; details: PBMCs from 3 healthy donors; 10 μg/ml; LPS 500 ng/mL and interferon-γ 1B 100 ng/mL; 24 hours
# Method: 3 healthy volunteers (Donor 1: Donor 2: Donor 3) served as blood donors. Venous blood (5 mL) was collected into heparinized tubes and immediately processed. Briefly, blood was diluted 1/1 in pre-warmed RPMI 1640 medium. PBMCs were isolated using gradient centrifugation in Ficoll solution (Sigma; 300×g, 30 min). Isolated PBMCs were re-suspended in 1 volume of pre-warmed RPMI 1640 medium and centrifuged again (300×g, 30 min). PBMCs were re-suspended in RPMI 1640 medium supplemented with 10% human serum (Sigma-Aldrich) at a concentration of 10^7 cells per mL. Cells were seeded in 96 well microplate (100 μL per well). Test compounds (10 μg/ml), LPS (500 ng/mL) and interferon-γ 1B (100 ng/mL) were added to PBMCs culture immediately after plating. After 24 hours, cell culture supernatants were collected and frozen at −80° C. for further processing.
# IL-10 levels in cell culture supernatants were assayed using an ELISA human IL-10 kit (Ozyme®) according to the indications for use specified by the manufacturer.
molecule,measurement,setting,value
murine sCD31 (from UniProt Q08481 18-585) (ligand),EC50 of prevention of MPP+-induced DA cell loss (TH+ cell survival in midbrain cultures),[1],0.036 µg/mL
Daratumumab: anti-CD38 antibody Daratumumab [reference compound],neuroprotective effect in 6-OHDA model,[2]; 15 mg/kg iv one day before 6-OHDA injection,failed to demonstrate neuroprotective activity
B1,Brain/plasma ratio,[3],0.385%
B2,"neuroprotective effect against MPP+-induced DA cell death, compared with reference clone HB7",[4],stronger neuroprotective effect
same,neuroprotective effect in the presence of the lysosomal exocytosis inhibitor vacuolin-1,[4],antagonized
same,IL-10 release,[5],statistically significantly increased
B3,"neuroprotective effect against MPP+-induced DA cell death, compared with reference clone HB7",[4],stronger neuroprotective effect
same,neuroprotective effect in the presence of the lysosomal exocytosis inhibitor vacuolin-1,[4],antagonized
same,IL-10 release,[5],statistically significantly increased
same,protection of dopaminergic neurons of the right substantia nigra pars compacta,[2]; 0.1 mg/kg injected intracerebrally concomitantly with 6-OHDA,statistically significantly protected
B4,"neuroprotective effect against MPP+-induced DA cell death, compared with reference clone HB7",[4],stronger neuroprotective effect
B5,neuroprotective effect in the presence of the lysosomal exocytosis inhibitor vacuolin-1,[4],antagonized
B6,neuroprotective effect in the presence of the lysosomal exocytosis inhibitor vacuolin-1,[4],antagonized
same,IL-10 release,[5],statistically significantly increased
